Laboratory results from patent US20050123977A1, “Assay and treatment” (Ludwig Institute for Cancer Research, priority 2003, published 2005).

Columns and labels:
p53Pro72 [1] = target: T1, p53Pro72 (Homo sapiens, UniProt P04637); test: Flow cytometry apoptosis assay, p53Pro72; assay type: cell-based
T1 construct: expressed in transfected cells; host or cells: Saos-2 or H1299 cells
Method: Cells (10^6) were plated 24-48 hours prior to transfection in 10 cm plates. All cells were transfected with 2 μg of a plasmid expressing CD20 as a transfection marker. Transfection consisted of 1 μg of human p53Pro72 or p53Arg72, 10 μg of ASPP1 or ASPP2, 4 μg of iASPP and 8 μg of pSuper plasmid containing RNAi of iASPP as indicated. 36 hours after the transfection, both attached and floating cells were harvested and analysed as described.

p53Pro72 and p53Arg72 = conditions: RKO cells heterozygous for p53Pro72/p53Arg72
Method: For western blotting, cells were lysed in either NP40 lysis buffer or luciferase reporter lysis buffer. Between 15-100 μg of protein extract was loaded on SDS-PAGE gels. For immunoprecipitation, cells were lysed in NP40 lysis buffer and pre-cleared with protein G beads for 1 hour at 4° C. The protein concentration was determined and then 1-2 mg of the extract was incubated with antibody pre-bound to protein G beads for 4 hours or overnight at 4° C. The beads were washed twice in NP40 lysis buffer and twice in NET buffer. The IP beads were mixed with 5× sample buffer and loaded onto an SDS-PAGE gel. The gels were wet transferred on to Protran nitrocellulose membrane and the resulting blots were first incubated with primary antibody and subsequently with the appropriate secondary HRP conjugated antibody (Dako). The blot was exposed to hyperfilm following the use of ECL substrate solution (Amersham Life Science).
p53Pro72, p53Arg72, ASPP1, ASPP2 and iASPP were in vitro translated and labelled with ^35S -Methionine using the TNT T7 Quick coupled Transcription/Translation System (Promega). The lysates containing indicated proteins were incubated at 30° C. for 1 hour. The anti-ASPP1, ASPP2 or iASPP antibodies immobilised on protein G agarose beads were added to the binding reactions and incubated on a rotating wheel at 4° C. for 16 hours. The beads were then washed with PBS. The bound proteins were released in SDS gel sample buffer and analysed by 10% SDS-polyacrylamide gel electrophoresis (PAGE). Results were visualised using autoradiography for ^35S -Methionine labelled proteins. For immunoprecipitation using cell lysates, the expression of endogenous ASPP1, ASPP2, iASPP, p53Pro72 and p53Arg72 were detected by western blot using antibodies specific to these proteins derived from different species from that used in IP.

p53Pro72 [2] = target: T1, p53Pro72; test: Transactivation assay (luciferase reporter), p53Pro72; assay type: cell-based; conditions: Saos-2 cells; for transcriptional activity of p53Pro72 on Bax promoter: co-transfection
Method: (§1) Saos-2 or H1299 cells (5×10^5) were plated 24 hours prior to transfection in 6 cm dishes. All transactivation assays contained 1 μg of reporter plasmid. 50 ng of p53Pro72 or p53Arg72, 4 μg of ASPP1 or ASPP2, 2 μg of iASPP expression plasmids were used as indicated. In FIG. 4C cells were also co-transfected with 3 μg of pSuper plasmid containing iASPP RNAi as indicated. Cells were lysed in Reporter Lysis Buffer 16-24 hours after transfection and assayed using the Luciferase Assay kit (Promega, Wis., USA). The fold activation of a particular reporter was determined by the activity of the transfected plasmid divided by the activity of vector alone.

p53Arg72 = target: T2, p53Arg72 (Homo sapiens, UniProt P04637, P72R); test: Transactivation assay (luciferase reporter), p53Arg72; assay type: cell-based; conditions: Saos-2 cells, Bax promoter, co-transfection
T2 construct: expressed in transfected cells; host or cells: Saos-2 or H1299 cells
Method: as §1

| Molecule | apoptotic function of p53Pro72 (p53Pro72 [1]; Saos-2 cells) | co-immunoprecipitation of p53Pro72 compared with p53Arg72 (p53Pro72 and p53Arg72) | transactivation function of p53Pro72 (p53Pro72 [2]; promoter not stated in text (FIG. 2C)) | apoptotic function of p53Pro72 (p53Pro72 [1]; H1299 cells) | transactivation function of p53Arg72 (p53Arg72) | transcriptional activity of p53Pro72 on Bax promoter (p53Pro72 [2]) |
| --- | --- | --- | --- | --- | --- | --- |
| iASPP: human iASPP protein (SEQ ID NO: 4), expressed from plasmid; inhibits apoptotic function of p53 (protein, listed as Homo sapiens) MWMKDPVARPLSPTRLQPALPPEAQSVPELEEVARVLAEIPRPLKRRGSMEQAPAVALPPTHKKQYQQIISRLFHRHGGPGPGGRSQSCPPSLRDLRPGQGPLLLPHQLPFHRPAPSQSSPPEQPQSMEMRSVLRKAGSPRKARRARLNPLVLLLDAALTGELEVVQQAVKEMNDPSQPNEEGITALHNAICGANYSIVDFLITAGANVNSPDSHGWTPLHCAASCNDTVICMALVQHGAAIFATTLSDGATAFEKCDPYREGYADCATYLADVEQSMGLMNSGAVYALWDYSAEFGDELSFREGESVTVLRRDGPEETDWWWAALHGQEGYVPRNYFGLFPRVKPQRSK | selectively inhibited | clearly larger | selectively inhibited |  |  |  |
| ASPP2: human ASPP2 protein (SEQ ID NO: 8), expressed from CMV-driven plasmid; stimulates apoptotic function of p53 (protein, listed as Homo sapiens) MMPMFLTVYLSNNEQHFTEVPVTPETICRDVVDLCKEPGESDCHLAEVWCGSERPVADNERMFDVLQRFGSQRNEVRFFLRHERPPGRDIVSGPRSQDPSLKRNGVKVPGEYRRKENGVNSPRMDLTLAELQEMASRQQQQIEAQQQLLATKEQRLKFLKQQDQRQQQQVAEQEKLKRLKEIAENQEAKLKKVRALKGHVEQKRLSNGKLVEEIEQMNNLFQQKQRELVLAVSKVEELTRQLEMLKNGRIDSHHDNQSAVAELDRLYKELQLRNKLNQEQNAKLQQQRECLNKRNSEVAVMDKRVNELRDRLWKKKAALQQKENLPVSSDGNLPQQAASAPSRVAAVGPYIQSSTMPRMPSRPELLVKPALPDGSLVIQASEGPMKIQTLPNMRSGAASQTKGSKIHPVGPDWSPSNADLFPSQGSASVPQSTGNALDQVDDGEVPLREKEKKVRPFSMFDAVDQSNAPPSFGTLRKNQSSEDILRDAQVANKNVAKVPPPVPTKPKQINLPYFGQTNQPPSDIKPDGSSQQLSTVVPSMGTKPKPAGQQPRVLLSPSIPSVGQDQTLSPGSKQESPPAAAVRPFTPQPSKDTLLPPFRKPQTVAASSIYSMYTQQQAPGKNFQQAVQSALTKTHTRGPHFSSVYGKPVIAAAQNQQQHPENIYSNSQGKPGSPEPETEPVSSVQENHENERIPRPLSPTKLLPFLSNPYRNQSDADLEALRKKLSNAPRPLKKRSSITEPEGPNGPNIQKLLYQRTTIAAMETISVPSYPSKSASVTASSESPVEIQNPYLHVEPEKEVVSLVPESLSPEDVGNASTENSDMPAPSPGLDYEPEGVPDNSPNLQNNPEEPNPEAPHVLDVYLEEYPPYPPPPYPSGEPEGPGEDSVSMRPPEITGQVSLPPGKRTNLRKTGSERIAHGMRVKFNPLALLLDSSLEGEFDLVQRIIYEVDDPSLPNDEGITALHNAVCAGHTEIVKFLVQFGVNVNAADSDGWTPLHCAASCNNVQVCKFLVESGAAVFAMTYSDMQTAADKCEEMEEGYTQCSQFLYGVQEKMGIMNKGVIYALWDYEPQNDDELPMKEGDCMTIIHREDEDEIEWWWARLNDKEGYVPRNLLGLYPRIKPRQRSLA | selectively enhance | Selective binding |  | enhanced | very little effect | significantly enhanced |
| ASPP1: human ASPP1 protein (SEQ ID NO: 7), V5-tagged, expressed from CMV-driven plasmid; stimulates apoptotic function of p53 (protein, listed as Homo sapiens, V5 tag, stimulates apoptotic function of p53) MMPMILTVFLSNNEQILTEVPITPETTCRDVVEFCKEPGEGSCHLAEVWRGNERPIPFDHMMYEHLQIWGPRREEVKFFLRHEDSPTENSEQGGRQTQEQRTQRNVINVPGDKRTEYGVGNPRVELTLSELQDMAARQQQQIENQQQMLVAKEQRLHFLKQQERRQQQSISENEKLQKLKERVEAQENKLKKIRAMRGQVDYSKIMNGNLSAEIERFSAMFQEKKQEVQTAILRVDQLSQQLEDLKKGKLNGFQSYNGKLTGPAAVELKRLYQELQIRNQLNQEQNSKLQQQKELLNKRNMEVAMMDKRISELRERLYGKKIQLNRVNGTSSPQSPLSTSGRVAAVGPYIQVPSAGSFPVLGDPIKPQSLSIASNAAHGRSKSANDGNWPTLKQNSSSSVKPVQVAGADWKDPSVEGSVKQGTVSSQPVPFSALGPTEKPGIEIGKVPPPIPGVGKQLPPSYGTYPSPTPLGPGSTSSLERRKEGSLPRPSAGLPSRQRPTLLPATGSTPQPGSSQQIQQRISVPPSPTYPPAGPPAFPAGDSKPELPLTVAIRPFLADKGSRPQSPRKGPQTVNSSSIYSMYLQQATPPKNYQPAAHSALNKSVKAVYGKPVLPSGSTSPSPLPFLHGSLSTGTPQPQPPSESTEKEPEQDGPAAPADGSTVESLPRPLSPTKLTPIVHSPLRYQSDADLEALRRKLANAPRPLKKRSSITEPEGPGGPNIQKLLYQRFNTLAGGMEGTPFYQPSPSQDFMGTLADVDNGNTNANGNLEELPPAQPTAPLPAEPAPSSDANDNELPSPEPEELICPQTTHQTAEPAEDNNNNVATVPTTEQIPSPVAEAPSPGEEQVPPAPLPPASHPPATSTNKRTNLKKPNSERTGHGLRVRFNPLALLLDASLEGEFDLVQRIIYEVEDPSKPNDEGITPLHNAVCAGHHHIVKFLLDFGVNVNAADSDGWTPLHCAASCNSVHLCKQLVESGAAIFASTISDIETAADKCEEMEEGYIQCSQFLYGVQEKLGVMNKGVAYALWDYEAQNSDELSFHEGDALTILRRKDESETEWWWARLGDREGYVPKNLLGLYPRIKPRQRTLA | selectively enhance | to a lesser extent |  | enhanced | very little effect | significantly enhanced |
